Reference: PMC9823104, “Targeted systematic evolution of an RNA platform neutralizing DNMT1 function and controlling DNA methylation”

How the values were obtained:
His-tagged DNMT1 [1] = target: T1, His-tagged DNMT1 (Homo sapiens, UniProt P26358 1-1616); experiment: ELONA; BLI: AR2G tips, protein amine-coupled, assay buffer not fully stated (PBS pre-hydration); MST: 50 nM RED-tris-NTA labelled stock in 25 mM Hepes pH 7.5, 250 mM NaCl, 0.05% Tween 20 / PBS-T mix, 25 C; EMSA: 5 mM Tris pH 7.4, 5 mM MgCl2, 1 mM DTT, 3% glycerol, 100 mM NaCl, RT; ELONA: PBS, RT; pulldown: 10 mM Tris pH 7.5, 200 nM (so in the source) NaCl, 5 mM EDTA, 0.1% Triton X-100; settings: protein: commercial; tags: His6; label: 3' biotin; hairpin (predicted)
His-tagged DNMT1 [2] = target: T1, His-tagged DNMT1; experiment: MST; BLI: AR2G tips, protein amine-coupled, assay buffer not fully stated (PBS pre-hydration); MST: 50 nM RED-tris-NTA labelled stock in 25 mM Hepes pH 7.5, 250 mM NaCl, 0.05% Tween 20 / PBS-T mix, 25 C; EMSA: 5 mM Tris pH 7.4, 5 mM MgCl2, 1 mM DTT, 3% glycerol, 100 mM NaCl, RT; ELONA: PBS, RT; pulldown: 10 mM Tris pH 7.5, 200 nM (so in the source) NaCl, 5 mM EDTA, 0.1% Triton X-100; settings: protein: commercial; tags: His6; hairpin (predicted)
[3] = target: T2, DNMT1 (purified, Active Motif) (UniProt P26358 1-1616); experiment: BLI; BLI: AR2G tips, protein amine-coupled, assay buffer not fully stated (PBS pre-hydration); MST: 50 nM RED-tris-NTA labelled stock in 25 mM Hepes pH 7.5, 250 mM NaCl, 0.05% Tween 20 / PBS-T mix, 25 C; EMSA: 5 mM Tris pH 7.4, 5 mM MgCl2, 1 mM DTT, 3% glycerol, 100 mM NaCl, RT; ELONA: PBS, RT; pulldown: 10 mM Tris pH 7.5, 200 nM (so in the source) NaCl, 5 mM EDTA, 0.1% Triton X-100; settings: protein: commercial; for Kd: hairpin (predicted)
His-tagged DNMT1 [4] = target: T1, His-tagged DNMT1; experiment: MST; up to 1.5 uM RNA; BLI: AR2G tips, protein amine-coupled, assay buffer not fully stated (PBS pre-hydration); MST: 50 nM RED-tris-NTA labelled stock in 25 mM Hepes pH 7.5, 250 mM NaCl, 0.05% Tween 20 / PBS-T mix, 25 C; EMSA: 5 mM Tris pH 7.4, 5 mM MgCl2, 1 mM DTT, 3% glycerol, 100 mM NaCl, RT; ELONA: PBS, RT; pulldown: 10 mM Tris pH 7.5, 200 nM (so in the source) NaCl, 5 mM EDTA, 0.1% Triton X-100; settings: protein: commercial; tags: His6; unable to form stem-loop
[5] = target: T2, DNMT1 (purified, Active Motif); experiment: BLI; no binding detected below 100 nM RNA; BLI: AR2G tips, protein amine-coupled, assay buffer not fully stated (PBS pre-hydration); MST: 50 nM RED-tris-NTA labelled stock in 25 mM Hepes pH 7.5, 250 mM NaCl, 0.05% Tween 20 / PBS-T mix, 25 C; EMSA: 5 mM Tris pH 7.4, 5 mM MgCl2, 1 mM DTT, 3% glycerol, 100 mM NaCl, RT; ELONA: PBS, RT; pulldown: 10 mM Tris pH 7.5, 200 nM (so in the source) NaCl, 5 mM EDTA, 0.1% Triton X-100; settings: protein: commercial; hairpin (predicted)

T2 sequence (P26358 whole entry): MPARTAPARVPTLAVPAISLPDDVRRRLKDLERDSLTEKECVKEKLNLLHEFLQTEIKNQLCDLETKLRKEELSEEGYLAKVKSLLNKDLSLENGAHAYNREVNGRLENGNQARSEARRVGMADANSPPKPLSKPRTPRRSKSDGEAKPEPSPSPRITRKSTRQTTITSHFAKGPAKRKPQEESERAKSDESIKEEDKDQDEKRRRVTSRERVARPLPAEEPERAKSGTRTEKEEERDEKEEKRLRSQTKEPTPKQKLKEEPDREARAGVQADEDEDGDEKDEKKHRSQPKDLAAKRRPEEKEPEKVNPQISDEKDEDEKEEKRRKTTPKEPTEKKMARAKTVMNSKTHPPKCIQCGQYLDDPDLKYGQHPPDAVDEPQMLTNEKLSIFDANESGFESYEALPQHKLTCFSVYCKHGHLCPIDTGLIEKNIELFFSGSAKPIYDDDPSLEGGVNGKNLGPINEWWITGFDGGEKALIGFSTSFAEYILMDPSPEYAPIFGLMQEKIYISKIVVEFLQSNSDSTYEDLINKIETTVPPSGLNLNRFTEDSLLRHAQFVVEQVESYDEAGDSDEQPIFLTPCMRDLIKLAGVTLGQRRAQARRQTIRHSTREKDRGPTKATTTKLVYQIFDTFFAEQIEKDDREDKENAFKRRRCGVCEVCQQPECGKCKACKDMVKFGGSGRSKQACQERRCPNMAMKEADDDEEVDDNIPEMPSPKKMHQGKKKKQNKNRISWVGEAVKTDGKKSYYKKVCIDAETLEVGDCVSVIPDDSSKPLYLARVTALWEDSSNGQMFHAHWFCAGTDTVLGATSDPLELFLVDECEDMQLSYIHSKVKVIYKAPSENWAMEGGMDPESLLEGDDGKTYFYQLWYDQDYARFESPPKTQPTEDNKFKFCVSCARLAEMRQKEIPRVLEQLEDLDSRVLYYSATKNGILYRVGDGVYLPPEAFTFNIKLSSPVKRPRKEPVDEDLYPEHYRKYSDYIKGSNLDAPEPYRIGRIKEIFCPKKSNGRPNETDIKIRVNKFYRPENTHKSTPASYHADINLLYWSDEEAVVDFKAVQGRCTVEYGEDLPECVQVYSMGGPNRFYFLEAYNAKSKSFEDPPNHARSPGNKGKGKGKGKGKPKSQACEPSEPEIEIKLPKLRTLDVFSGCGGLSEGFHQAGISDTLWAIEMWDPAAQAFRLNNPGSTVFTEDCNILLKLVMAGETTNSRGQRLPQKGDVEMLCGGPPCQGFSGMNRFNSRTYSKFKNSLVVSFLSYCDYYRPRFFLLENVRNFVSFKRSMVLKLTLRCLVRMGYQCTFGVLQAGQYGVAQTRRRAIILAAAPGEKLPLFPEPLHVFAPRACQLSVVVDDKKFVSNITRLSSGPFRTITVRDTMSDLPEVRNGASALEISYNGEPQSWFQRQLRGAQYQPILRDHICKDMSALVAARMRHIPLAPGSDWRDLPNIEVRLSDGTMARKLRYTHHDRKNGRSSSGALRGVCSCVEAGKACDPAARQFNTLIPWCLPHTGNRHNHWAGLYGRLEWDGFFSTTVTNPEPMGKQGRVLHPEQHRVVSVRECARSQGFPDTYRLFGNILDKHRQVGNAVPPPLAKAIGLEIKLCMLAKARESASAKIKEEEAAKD
T1 sequence (P26358 whole entry): as above

Row | Binder | binding result (His-tagged DNMT1 [1]) | Kd (His-tagged DNMT1 [2]) | Kd [3] | also measured
1 | AGGUAAUGGCGAGGCUUCUUAUCUG (structured_RNA, 2'-F pyrimidines (all C and U)) [Ce-10-1 sh biotin] | binds | – | – | –
2 | UUACUGGGCUGAGGUAAUGGCGAGG (structured_RNA, 2'-F pyrimidines (all C and U)) [Ce-10-2 sh] | – | 106 ± 42 nM | 66.4 ± 24 nM | –
3 | CUGAGGCCUAACGAAGGCUUCU (structured_RNA, 2'-F pyrimidines (all C and U)) [Ce-49 sh] | – | 119 ± 34 nM | 79.2 ± 23.7 nM | –
4 | CAGAGGACAAGGCGAGGCAACA (ssRNA, 2'-F pyrimidines (all C and U)) [mutR5] | – | – | – | binding result (His-tagged DNMT1 [4]): no binding; binding result ([3]; unable to form stem-loop): no binding
5 | CUGAGGCCUUGGCGAGGCUUCU (structured_RNA, 2'-F pyrimidines (all C and U)) [DNMT1 bait (2'F-Py R5)] | – | 440 ± 140 nM | – | Kd [5]: 600 ± 100 nM
6 | UGGGCUGAGCUCAUGGCGAGGCUUC (structured_RNA, 2'-F pyrimidines (all C and U)) [Ce-9 sh biotin] | binds | – | – | –
